{"source": "IntAct's records for PubMed 21385318", "parents": {"B1": {"name": "Kinase non-catalytic C-lobe domain-containing protein 1 (Mus musculus), Q0KK55 (parent)", "chain": "MQAMDPASRGFYEEDGKDLDFYDFEPLPTLPEDEENVSLADILSLRDRGLSEQEAWAVCLECSLSMRSVAHAAIFQTLCITPDTLAFNTSGNVCFMEQLSDDPEGAFVPPEFDLTGNTFEAHIYSLGATLKAALEYVPEPELEPKLSTDLEGLLSQMQAEDPRERPDLASIIALCEEKMQPVSSCRLCRSLSAIGRRVLSIESFGAFQELSENTWRGRPAPRNVGPKKMPGDLSTDPEALFPSKGLLQPPASRDAEQEAGQRPRAPSPKPLLSAPVRNGENPGQEGLADLVLDARCPLGELDRDNLRRSRLKKAQTFPRLLQESTETSTLCLSLNGSRNQLAISEFFPPDPRKLFLEGKNGLSGFKTQSKSRLWPEQEPGVQLDKTPGAGRNPHRSPGASGQLEASSPSQGSVEYKPSPSPVDAGDSDHEGHIPRSEEKIPEESRQPGSTATEQSLSLKDLLSKLGRPFREYELWALCLSCLSTLQTHKEHPAHLCLDNVLVAEDGTVFFGPPPANGAYNSLFLAPEVSEEKLVTEKASVYCVAAVLWTAAKFSVPRDHKLALPRRLKTLLLDMARRHASERPSAAEAIKVCSSYLLQRGMDSSKILAHLRASTCKVHPEEETIGLQNAFSVVELKSTTAPAPESSPGFLQVSNDTKLVAVPGPVPGLPPCCKEACELPAAFTSEATHFKPIVLAQDASVTRDQLALPSESNEKPKEGSGHLDREGTRKQAALELVEATDLKMSNQLSPGPELQGATPDPDGDSGSPSSATECSCPHGPALVTQQKGTSGTPSSPASSLPPEHRPDGEGPLGTTVLPGPTSASQGSRHPCKPPRGKAAASPSSPRGSDGHPEKPRPADRKLCPSSVDTSSPPKMTACPSLQEAMRLIQEEFAFDGYMDNGLEALIMGEYIYALKDLTFATFCGAISEKFCDLYWDEQLLKNLFKVVNGPASPSESTSEEPGSQPEHSPSRCSLSSKRPSLHGLGKEKPATTWGSGGPCSPTALSDIDSDTLSQGNFEVGFRSQKSIKVTREQQPEAEVGGQPGPSQDSTSHASDTVARLARSEDGGPAGSPGASDFQNCSPGWSSAFYEADCFGADVYNYVKDLERQKTNGHTELEAQSPELEQQLMIEKRNYRKTLKFYQKLLQKEKRNKGSEVRTMLSKLRGQLDEMKSKVQFLSLVKKYLQVMYAERWGLEPCALPVIVNIAAAPCDTLDFSPLDESSSLIFYNVNKHPGSGRQKKARILQAGTPLGLMAYLYSSDAFLEGYVQQFLYTFRYFCTPHDFLHFLLDRISSTLSRAHQDPTSTFTKIYRRSLCVLQAWVEDCYTVDFIRNAGLLGQLEDFISSKILPLDGTAEHLLALLEVGTERRADSASRGADLEDPKEAEEDTRPFNALCKRFSEDGITRKSFSWRLPRGNGLVLPHHKERQYTIASALPKPCFFEDFYGPYAKASEKGPYFLTEYSTNQLFTQLTLLQQELFQKCHPVHFLNSRALGVMDKSAAIPKASSSESLSAKTCSLFLPNYVQDKYLLQLLRNADDVSTWVAAEIVTSHTSKLQVNLLSKFLLIAKSCYEQRNFATAMQILGGLEHLAVRQSPAWRILPAKIAEVMEELKAVEVFLKSDSLCLMEGRRFRAQPTLPSAHLLAMHIQQLETGGFTMTNGAHRWSKLRNIAKVASQVHAFQENPYTFSPDPKLQAHLKQRIARFSGADVSILAADNRANFHQIPGEKHSRKIQDKLRRMKATFQ"}}}
{"variants_of": "B1", "conditions": "with mtap2_mouse Map2, P20357"}
{"variant": "L477A", "effect of a mutation on the interaction": "disrupting interaction"}
{"variants_of": "B1", "conditions": "with mtap2_mouse Map2, P20357", "remark": "another data set of the same source"}
{"variant": "L461A", "effect of a mutation on the interaction": "disrupting interaction"}
{"variants_of": "B1", "conditions": "with mtap2_mouse Map2, P20357", "remark": "another data set of the same source"}
{"variant": "L474A", "effect of a mutation on the interaction": "disrupting interaction"}
